Results: the DeepSol protein solubility set

Assay: soluble on expression in E. coli; label from the status in PepcDB or PDB records

Which “soluble on expression in E. coli” value does the source give for “MATFESSLKPRLIYVFAIADARHEGSLKIGETTLNDDVGSASTEPNSEVLNKAAKARIDQYTKTAGIGYELLYTELTIYFSGGRVCSFNDKQVHSVLERSGVKRKSFAGATEWYSCDLATVKRAISAIKEGKDSLGASEVTLSDNPIILRPEQKEAIERTLKQFRKGNKMLWNAKMRFGKTLCALRVAKEMEAVRTIIITHRPVVDASWFEDFGKTFYDRPEWHYGSRSKGESFASLEKLASQGKKCVYFASMQDMRGSKDVGGKFDKNNEVFSTSWDLVIVDEAHEGTQTELGKAVLGQLMGKDTKALHLSGTPYNLFDQHKEEEVFTWDYVMEQQAKIDWEINHLGDTNPYASLPAIHIYTYDLGRLISEYSDEEKAFNFREFFRTREDGSFVHEGDIDRFLSLLCREDEEALYPYSNEHFRQIFRHTLWILPGVRAAKALSKKLSKHPIFGLFKVANVAGDGDDEEEESRDALELVNQAIGKDPDETYTITLSCGRLTTGVSIKP” here?
Its value is “not soluble”.

Which “soluble on expression in E. coli” value does the source give for “MGNSSSLMLRDEEIEEIMSETEFNRNQIVRLYSRFLSLDKKGQGFLSRDDFLNVPELAVNPLGDRIVDAFFTLASSNGDNEEQQLNFRQFVRILAHFQPISRVKKNALNSRKDKLLFAFKMYDLNKNDYITREEFKVILNSMVGANITSDQLDKIADRTIEEADADRDGKISFDEFCRAMEKTDIEEKMSIRFLN” here?
The value was “soluble”.

For “MELVATQDGFVGEMARGFTFQALGEVAAGFGKRLQAEGIPRVVVGHDARFLAREMAEHAAGVLGGLGLEVHLLQGPAPLPLFGFALRAKEAAGLYLTGSRRPFAFQGVKLRLGPGRPLPREGGGPRTPPSPGPFAPLEARRDYLDHLRKSAQGLALKRGVVYLDAMGGAGGGILGQVLKRLEAPVELRELHPLPHPLFYGVAPDPRPEHLRTLRLLLREAKPPALGLALDGDADRLGVYLPGGEALPGDQALARLREAAQGREVEALGEGAYRFPWHLEEPDPFLAALLLMGVLL”, which “soluble on expression in E. coli” value is on record?
The value was “soluble”.

Which “soluble on expression in E. coli” value does the source give for “MMNQDIEKVLISEEQIQEKVLELGAIIAEDYKNTVPLAIGVLKGAMPFMADLLKRTDTYLEMDFMAVSSYGHSTVSTGEVKILKDLDTSVEGRDILIVEDIIDSGLTLSYLVDLFKYRKAKSVKIVTLLDKPTGRKVDLKADYVGFTVPHEFVVGYGLDYKEQYRNLPYVGVLKPSVYSN” here?
The value was “not soluble”.

With “MHATDQTFQILLSQLLEKVEDRCPECGSEQYVWQQKNKDGTERCAPTCWSCGYKMLKKHEQQANQQRSQESFMARTQKFFHQGSLIADDALRQCRLTNYQTTELETRQAKERALAAVSAIVEGKPIHVIFSGKPGVGKSHLAISILVEVLERSAYQKYCLFVSYSELLEKLKMSMNESAKSQAKAQAYITRMKKADVLVLDDLGAELGIKNKVSTDFNNDILNRILEARQNKATIFTTNFSGKQLVEAYGTRIISRLMKHANGYVFQYKDTTDKRMRSVKLEHHHHHH” as the sequence, how does the “soluble on expression in E. coli” value read?
The value was “not soluble”.

Which “soluble on expression in E. coli” value does the source give for “MVAIDYVVIGAGYAGLMCAEALMDKGFKTLVFDMRESGGEIVVFSKLEEFRSKYEKYIEKIEEIRKDIPVDIGTVIKSKPVIINSGNGLKRYEARRVILATGATDTAPVKLNVLSKKIEGIYTLENALREISENNKIGEKVLIAAKDDVIVKLAESQLSDLGYDVEISELTNDIQVIGKERVEGVEISGVRYSCDTLVVYGGRNPFNPLKLRGTPVGNVVTCTYDYSKVEENVKNFLAKILEHHHHHH” here?
The value was “not soluble”.

With “MQRRLERFDAKLVQSGLDALLVTGQNNIYYLTDFWGTNATVFITKNRRLFLTDSRYTLIAKQSVHGFDIIESKDPLKDIVKFVEVDKLETIGFDNQVSFAYYQALQAIFEGYTLSPQTNFMEELRMIK” as the sequence, how does the “soluble on expression in E. coli” value read?
The value was “soluble”.

For “MEKLENFWTRDELNTFFDYVTPERDVEQFTMFRVLAYSGIRKGELLALTWKDINFEDNTLRVNKTLTQGLGGKLIVQPPKSRAGRRTIDLDDSTMRYLRQWKGVQRETFLGMGFNTNNVDQLVFASNRNHFRSMNTPTKWLNKAIKATGLKHISIHGFRHTHASLLYQSGVGLKETQQRLGHSRADSSVTLDVYTHTTEQQNVAALQRFENYVEAKLEHHHHHH”, which “soluble on expression in E. coli” value is on record?
The value was “not soluble”.

With “MKVDGRRPEDEVIRETNAHGVSVVHIKKDPTTQKVEIVKNSIFNRRITASTVMEFAGAAAGSSLLATRFSPAGRQTRGTHNNCGNGYTPWGTYLTTEENFIGYFQRSGSDEYARTDAEKIALKRYGLGVKKDEPYLYEKDEKGAPKKDKDGKIIYLKDKNGELIPNVDEQGRQIYLGTSSRYGWETAIGQVESQDLYDRWNADVKAAQATQDYRNGPNTFGWMVEIDPFDGRQNPVKRTSLGRFAHEDSACRAVVGQPLAFYMGDDSRGEYIYKFVSTAVWDTKDINGGYTAGDKYMNAGKLYVAKFNNDGSGQWIELAYGKNGLNESNTTYPFKSQADVVTFARLAADSVGATKMDRPEWCTVNPVNGEIYVTLTNNSNRGKDYATDAANPRNYTDLYAGTKEQKGNVNGHIIRFKETDDKTTAETFKWDIYLFGAEASMASNINLSGLTDNNDFSSPDGMWFDPRGVLWIETDDGAYTDVTNCMMLAALPGQIGDGGTATTSNGQQTITGAKVTDATLRRFLVGPKQCEITGIAMTPDYKAIFINVQHPGEDSPSYAKPESNWPATQKDPSNKTARPRSATVVITRKDGGVIAGLEHHHHHH” as the sequence, how does the “soluble on expression in E. coli” value read?
The value was “soluble”.

Which “soluble on expression in E. coli” value does the source give for “MGSDKIHHHHHHMNSIFTEENLLAFTTAARFGSFSKAAEELGLTTSAISYTIKRMETGLDVVLFTRSTRSIELTESGRYFFRKATDLLNDFYAIKRRIDTISQGIEARVRICINQLLYTPKHTARLLQVLKKQFPTCQITVTTEVYNGVWDAIINNQANIAIGAPDTLLDGGGIDYTEIGAIRWAFAIAPDHPLAFVPEPIAESQLRLYPNIMVEDTAHTINKKVGWLLHGQESILVPDFNTKCQCQILGEGIGFLPDYMVREAMTQSLLVTRQIHNPRQDSRMLLATQHSATGQVTQWIKKQFAPNGILTGIYQDLLHREN” here?
Its value is “not soluble”.

For “MNIGIIGTGNMGNILIDAFLETRAVKPSCLTIINRTPAKAYHIKEKYPSVHIAKTIPEVIEQSQLIFICVKPIDIYPILKKYAEHFSDETCLVSITSPISPSQLETLVPCHVARIIPSITNRALSGASLFTFGDNCSEEWQQKLLRLFKNISTPLVIEEDITRVSSDIASCGPAFFSYLLQCFINAAVDKTNITHEEATTLVSEMVVGMGKLLEKEIFTLPTLQEKVCVKGGVTGEGIRVLEEHVGDMFHKLIERTHEKFDEDLECVDQQFNKHTLEHHHHHH”, which “soluble on expression in E. coli” value is on record?
Its value is “soluble”.

Which “soluble on expression in E. coli” value does the source give for “SVPQISQPHFLLDGLSSQPLFNDIAAGIPSITAYSKNGLKIEFTFERSNTNPSVTVITIQASNSTELDMTDFVFQAAVPKTFQLQLLSPSSSIVPAFNTGTITQVIKVLNPQKQQLRMRIKLTYNHKGSAMQDLAEVNNFPPQSWQ” here?
Its value is “soluble”.

With “VRSSSRTPSDMPVAHVVANPQAEGQLQWKNAGANALLANGVELRDNQLVVPSEGLYLIYSQVLFSGQGCPSTHVLLTHTISRIAVSYQTPVNLLSAIRSPCQRETPEGAEANPWYEPIYLGGVFQLEPGDRLSAEINRPDYLDFASTGQVYFGIIAL” as the sequence, how does the “soluble on expression in E. coli” value read?
The value was “soluble”.

With “MQTLQEILQQPELENKLLNQAKTVGFVTAMACCPNVLPPEEWLPFLWGGEEIAPFSDPIQLENYFEHIIALWNETRSQLLEGNWQWPTGYLLDEAEIVNQEVRDFCEGMLQGWQLARDDWEVLMPENSSDNTLLGGVLLSLSMLYDPETSIATLYEQGFTGLEQFAEIYHAIPVMLCGITQRGVTLAEAQ” as the sequence, how does the “soluble on expression in E. coli” value read?
The value was “not soluble”.

Which “soluble on expression in E. coli” value does the source give for “MGSDKIHHHHHHMNEDLFYDRLHQRCPGKYLLEELETSKSNDVLHASRFVCEMELVQKTNAYYCKTIVKMLLDHEWIFAKAFTIVNDGEDEIEIYDYLYEKYIKLLSTGKPDPMMKDVVRYRFDEDVKITIEETPNLISAASTTGFRTWEAALYMGDFLIHKPLQELAPVQGQDDGKKKLNVLEVGAGTGIVSLVILQKYHEFVNKMYVTDGDSNLVETQLKRNFELNNEVRENEPDIKLQRLWWGSDRVPEDIDLVVGADVTYDPTILPDLCECLAECLALDRCKLCLLSATIRSESTVQLFSQECNKLGLKCTIVTSTEYDANNEIRAMKALQFKPLIAPIRIYKITKQ” here?
Its value is “not soluble”.
